Consider two molecules from PMC11234873.

For the assay, the target named is full-length human Hsp90α (human), P07900. In words: BLI. (BLI is a label-free optical method that tracks binding on a fibre tip over time.)

A word on the Kd: it is the concentration at which binding is half-saturated. Low values mean higher affinity, high ones lower affinity. Take PRPRPRPRPRPRPRPRPRPRPRPRPRPRPRPRPRPRPRPR (modifications not checked) [PR20 dipeptide repeats]: the Kd came to 9.08 nM.

Molecule GRGRGRGRGRGRGRGRGRGRGRGRGRGRGRGRGRGRGRGR (modifications not checked) [GR20 dipeptide repeats] yielded a Kd of 8.97 nM.
